Reference: patent US20250034266A1 (ZAI LAB SHANGHAI, published 2025)
Where a chain is given by its changes, count along the chain named. Numbers in names are those of the source. Read-outs that look alike come from different tables or passages of the source. Values belong to the binder of their own block, whether it stands above or below them.

Assays:
human CCR8 [1] = molecular target: T1, human CCR8 (human, UniProt P51685 1-355); experiment: FACS of purified scFv on CHO-K1-human CCR8 cells
T1 construct: whole, on cells; also called hCCR8
T1 sequence (P51685 whole entry): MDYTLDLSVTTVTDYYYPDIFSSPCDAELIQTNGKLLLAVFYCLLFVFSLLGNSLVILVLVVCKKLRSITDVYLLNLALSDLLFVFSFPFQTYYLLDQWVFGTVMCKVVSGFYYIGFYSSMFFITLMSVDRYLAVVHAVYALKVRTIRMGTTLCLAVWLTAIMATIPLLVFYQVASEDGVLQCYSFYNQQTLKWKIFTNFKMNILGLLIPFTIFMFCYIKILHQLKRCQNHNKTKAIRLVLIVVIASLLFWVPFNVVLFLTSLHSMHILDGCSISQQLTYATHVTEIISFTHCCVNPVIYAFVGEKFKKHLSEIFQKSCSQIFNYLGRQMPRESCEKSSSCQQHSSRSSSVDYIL

human CCR8 [2] = molecular target: T1, human CCR8; experiment: cell-based or functional assay
human CCR8 [3] = molecular target: T1, human CCR8; experiment: FACS, competition with AF647-human CCL1 on CHO-K1-human CCR8 cells
Experimental: (§1) Antibodies were prepared with 3-fold serial dilution ranging from 200 nM to 0.01 nM in FACS buffer. Then, cells were washed by FACS buffer for three times after incubation. […] FlowJo software was used for analysis. Data was plotted as the logarithm of antibody concentration versus mean fluorescence signals. IC₅₀ values were determined in GraphPad Prism 8 (GraphPad Software) using a log(agonist) vs. response-Variable slope (4 parameters) curve fit.

human CCR8 [4] = molecular target: T1, human CCR8; experiment: FACS, competition with AF647-human CCL1 on HEK293-human CCR8 cells
Experimental: as §1

human CCR8 [5] = molecular target: T1, human CCR8; experiment: FACS on HEK293-human CCR8 cells
Experimental: (§2) Binding affinities of NG site removed antibodies were determined on human CCR8 and cynomolgus CCR8 overexpression cells. Briefly, CFSE labeled HEK293-human CCR8 cells or CFSE labeled HEK293-cynomolgus CCR8 cells were mixed with HEK293 cells. The mixed ratio was 1:1. A total of 5×10⁴ mixed cells for each well were seeded in 96-well plates and washed by FACS buffer (DPBS containing 1% FBS) once. Cells were incubated by serial diluted purified hybridoma antibodies for 1 hour at 4° C. Antibodies were prepared with 3-fold serial dilution ranging from 100 nM to 0.0017 nM or from 25.3165 nM to 0.0004 nM in FACS buffer. […] After primary antibody incubation, cells were washed by FACS buffer for three times. Then, cells were stained with secondary antibody (Alexa Flu647-conj gated rabbit anti-mouse IgG, Jackson ImmunoResearch, #315606046) at 1:600 dilution in FACS buffer, incubated for 0.5 hour at 4° C. […] FlowJo software was used for analysis. Data was plotted as the logarithm of antibody concentration versus mean fluorescence signals. EC₅₀ values were calculated in GraphPad Prism 8 (GraphPad Software) using a log (agonist) vs. response-Variable slope (4 parameters) curve fit.

cynomolgus CCR8 [6] = molecular target: T2, cynomolgus CCR8 (cynomolgus, UniProt G7NYJ2 1-355); experiment: FACS on HEK293-cynomolgus CCR8 cells
T2 construct: whole, on cells
Experimental: as §2

human CCR8 [7] = molecular target: T1, human CCR8; experiment: FACS, competition with AF647-human CCL1 on CHO-K1-human CCR8 cells; remark: listed apart in the source
Experimental: Blocking curves were generated to rank the blocking activities of PTM sites removed antibodies. Briefly, a total of 5×10⁴ CHO-K1-human CCR8 cells for each well were seeded in 96-well plate. Cells were incubated by series diluted purified hybridoma antibodies and 4 nM AF647 labeled human CCL1 (Almac, #CAF-07) for 1 hour at 4° C. Antibodies were prepared with 3-fold serial dilution ranging from 100 nM to 0.0051 nM in FACS buffer. Then, cells were washed by FACS buffer for three times after incubation. […] FlowJo software was used for analysis. Data was plotted as the logarithm of antibody concentration versus mean fluorescence signals. IC₅₀ values were determined in GraphPad Prism 8 (GraphPad Software) using a log(agonist) vs. response-Variable slope (4 parameters) curve fit.

human CCR8 [8] = molecular target: T3, human CCR8 (human, UniProt P51685 1-355); experiment: cell-based or functional assay; remark: listed apart in the source
T3 sequence (P51685 whole entry): as above

human CCR8 [9] = molecular target: T3, human CCR8; experiment: cell-based or functional assay; remark: listed apart in the source
human CCR8 [10] = molecular target: T1, human CCR8; experiment: cell-based or functional assay; remark: listed apart in the source
human CCR8 [11] = molecular target: T1, human CCR8; experiment: FACS on HEK293-human CCR8 cells; remark: listed apart in the source
Experimental: (§3) A total of 5×10⁴ cells for each well were seeded in 96-well plates and washed with FACS buffer (DPBD containing 1.5% FBS) for once. Antibodies were prepared with 3-fold serial dilution ranging from 100 nM to 0.0017 nM in FACS buffer. Cells were incubated with 50 μL of diluted antibodies at 4° C. for 1 hour. […] After primary antibody incubation, cells were washed for 3 times by FACS buffer. Then, cells were stained by Alexa Flu647 labeled anti-human IgG secondary antibody (Jackson ImmunoResearch, #109606170) or Alexa Flu647 labeled anti-mouse IgG secondary antibody (Jackson ImmunoResearch, #115605072) at 1:600 dilution in FACS buffer for 0.5 hour at 4° C. After washed for 3 times, Flow cytometry was performed to measure the binding.

cynomolgus CCR8 [12] = molecular target: T2, cynomolgus CCR8; experiment: FACS on HEK293-cynomolgus CCR8 cells; remark: listed apart in the source
Experimental: as §3

human CCR8 [13] = molecular target: T1, human CCR8; experiment: FACS, competition with AF647-human CCL1 on CHO-K1-human CCR8 cells; remark: listed apart in the source
human CCR8 [14] = molecular target: T1, human CCR8; experiment: FACS on HEK293-human CCR8 cells; remark: listed apart in the source
cynomolgus CCR8 [15] = molecular target: T2, cynomolgus CCR8; experiment: FACS on ExpiCHO-S-cynomolgus CCR8 cells
human CCR8 [16] = molecular target: T1, human CCR8; experiment: FACS, competition with AF647-human CCL1 on CHO-K1-human CCR8 cells; remark: listed apart in the source

T2 sequence (G7NYJ2 entry or part of it): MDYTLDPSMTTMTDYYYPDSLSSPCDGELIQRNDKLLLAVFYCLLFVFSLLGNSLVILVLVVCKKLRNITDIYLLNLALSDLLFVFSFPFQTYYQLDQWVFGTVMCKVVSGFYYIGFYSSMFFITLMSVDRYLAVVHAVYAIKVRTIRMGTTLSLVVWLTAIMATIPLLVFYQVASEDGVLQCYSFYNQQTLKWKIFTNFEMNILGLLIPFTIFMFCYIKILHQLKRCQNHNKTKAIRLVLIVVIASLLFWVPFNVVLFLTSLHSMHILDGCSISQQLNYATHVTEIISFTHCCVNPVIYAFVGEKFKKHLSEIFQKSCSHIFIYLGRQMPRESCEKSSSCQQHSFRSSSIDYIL

GeoMean AF647 (RL1-H) of CHO-K1-human CCR8 / GeoMean AF647 (RL1-H) in H12(NC) (human CCR8 [1]): 10.8
B1: VH-PH5-P9E9 (scFv)
scFv: EVQLVESGGGLVQPGGSLKLSCAASGFTFNTYAMNWVRQASGKGLEWVGRIRSKSNFYATAYAASVKGRFTISRDDSKNTAYLQMNSLKTEDTAVYYCTRGKEYGSSYAMDYWGQGTLVTVSSGGGGSGGGGSGGGGSDIVMTQSPLSLPVTPGEPASISCRSSKSLLHSNANTYLYWFLQKPGQSPQLLIYRMSNLASGVPDRFSGSGSGTDFTLKISRVEAEDVGVYYCMQHLEYPLTFGGGTKVELK

GeoMean AF647 (RL1-H) of CHO-K1-human CCR8 / GeoMean AF647 (RL1-H) in H12(NC) (human CCR8 [1]): 6
B2: VH-PH7-P2H12 (scFv)
scFv: B1 scFv with S41P, K102R, E103D
notes: also called VH-PH7-P2H12(S41P)

IC50, inhibition of CCL1 induced β-Arrestin recruitment (human CCR8 [2]): 1.7 nM
Max Inhibition (%), CCL1 induced β-Arrestin recruitment (human CCR8 [2]): 30.9%
IC50 (human CCR8 [3]): 2.73 nM
Max Inhibition (%) (human CCR8 [3]): 95%
IC50 (human CCR8 [4]): 1.64 nM
Max Inhibition (%) (human CCR8 [4]): 87.6%
B3: 204A2G12 (antibody, V domains shown)
VH: DVQLQESGPGLVKPSQSLSLTCSVTGYSITSGYYWNWIRQFPGNKLEWMGYISYDGTNNYNPSLKNRISITRDTSKNQFFLKLTSVTTEDTATYYCARQVGLRRAWFAYWGQGTLVTVSA
VL: DIQMTQSSSFLSVSLGGRVTITCKASDHINYWLAWYQQKPGNAPRLLISGATSLETGVPSRFSGSGSGKDYTLTITSLQNEDVATYYCHQYWSTPTFGSGTKLEIK
notes: purified murine hybridoma antibody

IC50, inhibition of CCL1 induced β-Arrestin recruitment (human CCR8 [2]): 0.61 nM
Max Inhibition (%), CCL1 induced β-Arrestin recruitment (human CCR8 [2]): 32%
EC50 (human CCR8 [5]): 0.173 nM
Max MFI (human CCR8 [5]): 1930 MFI
EC50 (cynomolgus CCR8 [6]): 0.145 nM
Max MFI (cynomolgus CCR8 [6]): 3440 MFI
IC50 (human CCR8 [3]): 0.917 nM
Max Inhibition (%) (human CCR8 [3]): 98%
IC50 (human CCR8 [4]): 0.733 nM
Max Inhibition (%) (human CCR8 [4]): 96.4%
IC50 (human CCR8 [7]): 0.97 nM
Max Inhibition (%) (human CCR8 [7]): 79.4%
B4: 149F2C10 (antibody, V domains shown)
VH: EVQLVESGGGLVQPKGSLKLSCAASGFTFNTYAMNWVRQAPGKGLEWVARIRSKSNFYATYYADSVKDRFTISRDDSQDMLYLQMNILKTEDTAIYYCVRGRDYGSSYAMDYWGQGTSVTVSS
VL: DIVMTQAAPSVPVTPGESVSISCRSSKSLLHSNGNTYLYWFLQRPGQSPQLLIYRMSNLASGVPDRFSGSGSGTAFTLRISRVEAEDVGVYYCMQHLEYPLTFGAGTKLELK
notes: as for B3

IC50, inhibition of CCL1 induced β-Arrestin recruitment (human CCR8 [2]): 0.46 nM
Max Inhibition (%), CCL1 induced β-Arrestin recruitment (human CCR8 [2]): 42%
IC50 (human CCR8 [3]): 0.602 nM
Max Inhibition (%) (human CCR8 [3]): 97.9%
IC50 (human CCR8 [4]): 0.599 nM
Max Inhibition (%) (human CCR8 [4]): 96.6%
B5: 164G10D6 (antibody, V domains shown)
VH: B4 VH
VL: B4 VL
notes: as for B3

EC50, ADCC reporter, F variant CD16a/NFAT-Jurkat, target CHO-K1-human CCR8 cells (human CCR8 [8]): 0.0598 nM
EC50, ADCC reporter, F variant CD16a/NFAT-Jurkat, target HuT78 cells (human CCR8 [8]): 0.744 nM
EC50, ADCC reporter, V variant CD16a/NFAT-Jurkat, target CHO-K1-human CCR8 cells (human CCR8 [8]): 0.043 nM
EC50, ADCC reporter, V variant CD16a/NFAT-Jurkat, target HuT78 cells (human CCR8 [8]): 0.495 nM
Max (RLU), ADCC reporter, F variant CD16a/NFAT-Jurkat, target CHO-K1-human CCR8 cells (human CCR8 [8]): 4.96e+06 RLU
Max (RLU), ADCC reporter, F variant CD16a/NFAT-Jurkat, target HuT78 cells (human CCR8 [8]): 5.28e+06 RLU
Max (RLU), ADCC reporter, V variant CD16a/NFAT-Jurkat, target CHO-K1-human CCR8 cells (human CCR8 [8]): 2.28e+06 RLU
Max (RLU), ADCC reporter, V variant CD16a/NFAT-Jurkat, target HuT78 cells (human CCR8 [8]): 4.19e+06 RLU
EC50, ADCC with human PBMCs, target CHO-K1-human CCR8 cells (human CCR8 [9]): 0.0113 nM
Max specific lysis (%), ADCC with human PBMCs, target CHO-K1-human CCR8 cells (human CCR8 [9]): 36.4%
B6: Hu149-12G1 (antibody, human IgG1)
heavy: not shown
VL: DIVMTQSPLSLPVTPGEPASISCRSSKSLLHSNANTYLYWFLQKPGQSPQLLIYRMSNLASGVPDRFSGSGSGTDFTLKISRVEAEDVGVYYCMQHLEYPLTFGGGTKVELK

EC50, ADCC with human PBMC (human CCR8 [10]): 0.002 nM
Max specific lysis (%), ADCC with human PBMC (human CCR8 [10]): 8.76%
EC50 (human CCR8 [11]): 0.0518 nM
Max MFI (human CCR8 [11]): 7470 MFI
EC50 (cynomolgus CCR8 [12]): 0.081 nM
Max MFI (cynomolgus CCR8 [12]): 26500 MFI
IC50 (human CCR8 [13]): 0.137 nM
Max Inhibition (%) (human CCR8 [13]): 99.5%
B7: Hu149-4 (antibody, human IgG1, V domains shown)
VH: EVQLVESGGGLVQPGGSLKLSCAASGFTFNTYAMNWVRQASGKGLEWVGRIRSKSNFYATYYAASVKGRFTISRDDSKNTAYLQMNSLKTEDTAVYYCTRGRDYGSSYAMDYWGQGTLVTVSS
VL: B6 VL
notes: humanized, human IgG1; also called Hu149-4 HuIgG1

EC50, ADCC with human PBMC (human CCR8 [10]): 0.41 nM
Max specific lysis (%), ADCC with human PBMC (human CCR8 [10]): 13.1%
EC50 (human CCR8 [14]): 0.091 nM
Max MFI (human CCR8 [14]): 5050 MFI
EC50 (cynomolgus CCR8 [15]): 65.3 nM
Max MFI (cynomolgus CCR8 [15]): 238 MFI
IC50 (human CCR8 [16]): 0.17 nM
Max Inhibition (%) (human CCR8 [16]): 96.4%
B8: CM348 (antibody, V domains shown)
VH: QVQLVETGGGLVRPGNSLKLSCVTSGFSFSNYRMHWLRQPPGKRLEWIAVITVKSDNYGANYAESVKGRFTISRDDSKSSVYLQMNRLREEDTATYYCSSLGRVAYWGQGTLVTVSA
VL: DIVMTQSQKFMFTSVGDRVSVTCKASQNVDTNVVWYQQKPGQSPKALIYSASSRYSGVPDRFTGSGSGTDFTLTISNVQSEDLAEYFCQQHNSFPLTFGAGTKLELI
notes: CM348 is not defined in words; also called CM348 HuIgG1; parental antibody CM348
